Test results reported in PMC10101019.

Molecular target: DENV-2 particles (dengue virus 2)

B1: Trx-tagged mucin protein of Aedes aegypti (natural protein)
chain: MQTFACICLISILISESFGKFDTPADPVFSDDVTDYDSPSGIDYYDVKDYPMIPGELNVYRKTKPGGLLPSSDVDMKGKMLTSKEVTTKPRNIPTRQHRVQNRIRKPARFSTVVPLPTAALTAPQCILQRTTPKPLWRREGGRVIIDGSDPNIDIFKVMRESRRRPTEAPKPTGNLPMRDIVGNEIKPETASNQFLVLGSVLRCRETKQEVHEHRTRNSRVEISDPTVTGLTVEYPPNIIRLTHRFESTSTGGKAFVFRTMNGKQGILKLKWYSCPTRNSG
DENV-2 titer by focus-forming assay 6 days after microinjection of DENV-2 particles with anti-mucin antibodies into Ae. aegypti, against DENV-2 with PBS or pre-immune serum (% reduction in DENV-2 titer): 12.5
